From paper PMC11718236, “The Psu protein of phage satellite P4 inhibits transcription termination factor ρ by forced hyper-oligomerization” (Nature Communications, 2023) come the findings set out here.

Series [1] concerns the target T1, Rho (transcription termination factor ρ, wt);Psu (polarity suppression protein) (Escherichia coli;phage satellite P4, UniProt P0AG30;P05460 1-419;1-190, |). Put plainly: fluorescence anisotropy; PBS; Psu up to 30 uM dimer has no effect; ADP-BeF3; 20 mM HEPES pH 7.5, 150 mM KCl, 5% glycerol, 5 mM MgCl2, 0.5 mM TCEP; SBS assays with 10 uM unlabeled dC15 and 2 mM ADP-BeF3; probe 5 uM dC15-FAM or 2 uM rU12-FAM; temperature not stated. The settings on record: protein: recombinant;recombinant; tags: none;none; chain copies: 6;2; label: FAM (fluorescein); single strand. A general note: In fluorescence polarisation assays a small probe gives low polarisation when free and higher when bound to something large.

In series [2] the target is T2, Rho P167L;Psu (polarity suppression protein) (Escherichia coli;phage satellite P4, UniProt P0AG30;P05460 1-419;1-190, P167L|). The description is as above. The settings on record: protein: recombinant;recombinant; tags: none;none; chain copies: 6;2; label: FAM (fluorescein); single strand.
Series [3] concerns the target T2, Rho P167L;Psu (polarity suppression …). Put plainly: fluorescence anisotropy; Psu added to pre-formed ρP167L-dC15-rU12-FAM complex; RNA not displaced; ADP-BeF3; 20 mM HEPES pH 7.5, 150 mM KCl, 5% glycerol, 5 mM MgCl2, 0.5 mM TCEP; SBS assays with 10 uM unlabeled dC15 and 2 mM ADP-BeF3; probe 5 uM dC15-FAM or 2 uM rU12-FAM; temperature not stated. As to conditions: protein: recombinant;recombinant; tags: none;none; chain copies: 6;2; label: FAM (fluorescein); single strand.

For series [4], the target named is T1, Rho (transcription termination factor …). Put plainly: fluorescence anisotropy; SBS; IC50 of Psu as inhibitor (very weak inhibition); dC15-blocked PBS; 2 mM ADP-BeF3; 20 mM HEPES pH 7.5, 150 mM KCl, 5% glycerol, 5 mM MgCl2, 0.5 mM TCEP; SBS assays with 10 uM unlabeled dC15 and 2 mM ADP-BeF3; probe 5 uM dC15-FAM or 2 uM rU12-FAM; temperature not stated. As to conditions: protein: recombinant;recombinant; tags: none;none; chain copies: 6;2; label: FAM (fluorescein); single strand.

Series [5] deals with the molecule itself. Put plainly: cryo-EM structure; ρ^P167L-ATPγS-Psu complexes; 10 mM TRIS-HCl pH 8.0, 120 mM KOAc, 5 mM Mg(OAc)2, 5 µM ZnCl2; 1 mM ATPγS; single-particle analysis.
Series [6] deals with transcription termination factor ρ P167L variant, non-tagged, purified (E. coli, UniProt P0AG30 1-419, P167L). Put plainly: cell-based or functional assay.
Series [7] addresses transcription termination factor ρ (wild type), non-tagged, purified (E. coli, UniProt P0AG30 1-419). Put plainly: cell-based or functional assay.

Positions count from the first letter of the chain named. Names may count otherwise.

CCCCCCCCCCCCCCC (ssDNA) [dC15-FAM]: the binding result in series [1] and in series [2] was “binds” throughout.

UUUUUUUUUUUU (ssRNA) [rU12-FAM]: the binding result in series [3] is “binds”. The 50% inhibitory concentration (IC50) (commonly the point on the concentration scale where inhibition reaches its midpoint) in series [4] came to 299 µM.

B1: phage satellite P4 polarity suppression protein Psu (wild type), purified (natural protein)
chain: MESTALQQAFDTCQNNKAAWLQRKNELAAAEQEYLRLLSGEGRNVSRLDELRNIIEVRKWQVNQAAGRYIRSHEAVQHISIRDRLNDFMQQHGTALAAALAPELMGYSELTAIARNCAIQRATDALREALLSWLAKGEKINYSAQDSDILTTIGFRPDVASVDDSREKFTPAQNMIFSRKSAQLASRQSV
notes: polarity suppression protein Psu of phage satellite P4; No tag is told for the purified protein; also called Psu^wt; wt Psu; source: E. coli BL21 RIL, purified (ammonium sulfate precipitation, heparin, MonoQ, MonoS, Superdex 75 SEC)
With B1, the stoichiometry N (usually the number of molecules, sites or subunits per partner or assembly) in series [5] stood at 2. In addition, in series [6], the “IC50 of Psu for inhibition of rU12-FAM binding at the SBS of ρ^P167L (fluorescence anisotropy, with ADP-BeF3 and dC15)” value was found to be 2.8 µM; the “IC50 of inhibition of the RNA-stimulated ATPase activity of ρ^P167L by Psu (TLC, 1 h, 37 °C)” value was 0.8 µM; the “decrease of the ρ^P167L ATPase rate at Psu dimer:ρ hexamer 10:1 and 50:1 (1.5-fold and 4-fold)” value was 4 fold. In series [7], the “IC50 of Psu for inhibition of rU12-FAM binding at the SBS of ρ^wt (fluorescence anisotropy, with ADP-BeF3 and dC15)” value amounted to 299 µM; the “IC50 of inhibition of the RNA-stimulated ATPase activity of ρ^wt by Psu (TLC, 1 h, 37 °C)” value came to 0.9 µM; the “decrease of the ρ^wt ATPase rate at Psu dimer:ρ hexamer 10:1 and 50:1 (1.3-fold and 1.6-fold)” value came out at 1.6 fold.

B2: Psu R43A variant, purified (natural protein, phage satellite P4)
chain: B1 chain with R43A
As to B2, in series [6], the “IC50 of inhibition of the RNA-stimulated ATPase activity of ρ^P167L by Psu^R43A (TLC, 1 h, 37 °C)” value is 12.9 µM.
